Source: patent publication US20190119358A1
*1 amine or outer side, *2 acyl side, *3 side chain or, on linkers, in order; H or OH if unused. Bridges are numbered along the chain shown (N, C = ends). Where no end group is shown, it is not given here. [ ]: non-standard residue; d: D form. UBX = ((2S,3R)-3-amino-2-hydroxy-4-phenylbutanoyl)-L-leucine, CC(C)C[C@H](NC(=O)[C@@H](O)[C@@H](Cc1ccccc1)N[*:1])C(=O)[*:2]; TDSPA = (R)-2-amino-3-(tert-butyldisulfanyl)propanoic acid, CC(C)(C)SSC[C@H](N[*:1])C(=O)[*:2]; m‑xylylene = m-xylylene thioether bridge between Cys; Trp(7-aza) = N[C@@H](Cc1c[nH]c2ncccc12)C(=O)O; NMePhe(4-F) = CN[C@@H](Cc1ccc(F)cc1)C(=O)O; mXylylene = c1cc(C[*:1])cc(C[*:2])c1; NMeY = CN[C@@H](Cc1ccc(O)cc1)C(=O)O; Glutaryl = O=C(CCCC(=O)[*:2])[*:1]; PEG4 = NCCOCCOCCOCCOCCC(=O)O; Phg = N[C@H](C(=O)O)c1ccccc1; Tle = CC(C)(C)[C@H](N)C(=O)O; NMeS = CN[C@@H](CO)C(=O)O; NMeA = CN[C@@H](C)C(=O)O; Pra = C#CC[C@H](N)C(=O)O; Nva = CCC[C@H](N)C(=O)O; Ahp = NCCCCCCC(=O)O; Sar = CNCC(=O)O

target: GMPPNP-loaded H-Ras or GTP-loaded K-Ras; assay: FP competition, displacement of probe R4007 from Ras

Binder	IC50 [nM]
Ac-[Nva]CY[Tle]KH[NMeA][Phg][Trp(7-aza)]Y[NMePhe(4-F)][Sar]C[dS]KG[TDSPA]VIM (linker 2-13 via mXylylene) [R4109]	14.2
Ac-[Nva]CY[Tle]KH[NMeA][Phg][Trp(7-aza)]Y[NMePhe(4-F)][Sar]C[dS]KGCVIM (linker 2-13 via mXylylene) [R4105]	3.31
[Nva]CY[Tle]KH[NMeA][Phg][Trp(7-aza)]Y[NMePhe(4-F)][Sar]C[dS]KG[TDSPA]VIM (linker 2-13 via mXylylene) [R4113]	32.7
Ac-[Nva]CY[Tle]KH[NMeA][Phg][Trp(7-aza)]Y[NMePhe(4-F)][NMeS]C-NH2 (linker 2-13 via mXylylene; SMILES CCC[C@H](NC(C)=O)C(=O)N[C@H]1CSCc2cccc(c2)CSC[C@@H](C(N)=O)NC(=O)[C@H](CO)N(C)C(=O)[C@H](Cc2ccc(F)cc2)N(C)C(=O)[C@H](Cc2ccc(O)cc2)NC(=O)[C@H](Cc2c[nH]c3ncccc23)NC(=O)[C@H](c2ccccc2)NC(=O)[C@H](C)N(C)C(=O)[C@H](Cc2c[nH]cn2)NC(=O)[C@H](CCCCN)NC(=O)[C@H](C(C)(C)C)NC(=O)[C@H](Cc2ccc(O)cc2)NC1=O) [R4118]	51.5
Ac-[Nva]CY[Tle]KH[NMeA][Phg][Trp(7-aza)]Y[NMePhe(4-F)][Sar]C[dS][dA]GCVIM (linker 2-13 via mXylylene) [R4102]	1.82
Ac-[Nva]C[NMeY][Tle]KH[NMeA][Phg][Trp(7-aza)]Y[NMePhe(4-F)][Sar]C-NH2 (linker 2-13 via mXylylene; SMILES CCC[C@H](NC(C)=O)C(=O)N[C@H]1CSCc2cccc(c2)CSC[C@@H](C(N)=O)NC(=O)CN(C)C(=O)[C@H](Cc2ccc(F)cc2)N(C)C(=O)[C@H](Cc2ccc(O)cc2)NC(=O)[C@H](Cc2c[nH]c3ncccc23)NC(=O)[C@H](c2ccccc2)NC(=O)[C@H](C)N(C)C(=O)[C@H](Cc2c[nH]cn2)NC(=O)[C@H](CCCCN)NC(=O)[C@H](C(C)(C)C)NC(=O)[C@H](Cc2ccc(O)cc2)N(C)C1=O) [R4117]	48.3
Ac-[Nva]CY[Tle]KH[NMeA][Phg][Trp(7-aza)]Y[NMePhe(4-F)][Sar]C (linker 2-13 via mXylylene) [R4108]	9.45
Ac-CY[Tle]KH[NMeA][Phg][Trp(7-aza)]Y[NMePhe(4-F)][Sar]C-NH2 (linker 1-12 via mXylylene; SMILES CC(=O)N[C@H]1CSCc2cccc(c2)CSC[C@@H](C(N)=O)NC(=O)CN(C)C(=O)[C@H](Cc2ccc(F)cc2)N(C)C(=O)[C@H](Cc2ccc(O)cc2)NC(=O)[C@H](Cc2c[nH]c3ncccc23)NC(=O)[C@H](c2ccccc2)NC(=O)[C@H](C)N(C)C(=O)[C@H](Cc2c[nH]cn2)NC(=O)[C@H](CCCCN)NC(=O)[C@H](C(C)(C)C)NC(=O)[C@H](Cc2ccc(O)cc2)NC1=O) [R4112]	21.4
Ac-[Nva]C[Tle]YHT[Trp(7-aza)][Trp(7-aza)]E[Trp(7-aza)][Nva]HC-NH2 (linker 2-13 via m‑xylylene) [R4100]	1.06
Ac-[Nva]CY[Tle]KH[NMeA][Phg][Trp(7-aza)]Y[NMePhe(4-F)][Sar]CGCMSCKCVLS-NH2 (linker 2-13 via mXylylene; cysteine pairing not given here) [R4116]	35.7
[UBX][Ahp][Nva]CY[Tle]KH[NMeA][Phg][Trp(7-aza)]Y[NMePhe(4-F)][Sar]C-NH2 (linker 4-15 via mXylylene; N-terminus assumed; SMILES CCC[C@H](NC(=O)CCCCCCNC(=O)[C@H](CC(C)C)NC(=O)[C@@H](O)[C@H](N)Cc1ccccc1)C(=O)N[C@H]1CSCc2cccc(c2)CSC[C@@H](C(N)=O)NC(=O)CN(C)C(=O)[C@H](Cc2ccc(F)cc2)N(C)C(=O)[C@H](Cc2ccc(O)cc2)NC(=O)[C@H](Cc2c[nH]c3ncccc23)NC(=O)[C@H](c2ccccc2)NC(=O)[C@H](C)N(C)C(=O)[C@H](Cc2c[nH]cn2)NC(=O)[C@H](CCCCN)NC(=O)[C@H](C(C)(C)C)NC(=O)[C@H](Cc2ccc(O)cc2)NC1=O) [R4106]	8.38
Ac-[Nva]CY[Tle]KH[NMeA][Phg][Trp(7-aza)]Y[NMePhe(4-F)][Sar]C[PEG4][Pra]-NH2 (linker 2-13 via mXylylene; SMILES C#CC[C@H](NC(=O)CCOCCOCCOCCOCCNC(=O)[C@@H]1CSCc2cccc(c2)CSC[C@H](NC(=O)[C@H](CCC)NC(C)=O)C(=O)N[C@@H](Cc2ccc(O)cc2)C(=O)N[C@@H](C(C)(C)C)C(=O)N[C@@H](CCCCN)C(=O)N[C@@H](Cc2c[nH]cn2)C(=O)N(C)[C@@H](C)C(=O)N[C@@H](c2ccccc2)C(=O)N[C@@H](Cc2c[nH]c3ncccc23)C(=O)N[C@@H](Cc2ccc(O)cc2)C(=O)N(C)[C@@H](Cc2ccc(F)cc2)C(=O)N(C)CC(=O)N1)C(N)=O) [R4107]	9.42
[Nva]CY[Tle]KH[NMeA][Phg][Trp(7-aza)]Y[NMePhe(4-F)][Sar]C-NH2 (linker 2-13 via mXylylene; N-terminus assumed; SMILES CCC[C@H](N)C(=O)N[C@H]1CSCc2cccc(c2)CSC[C@@H](C(N)=O)NC(=O)CN(C)C(=O)[C@H](Cc2ccc(F)cc2)N(C)C(=O)[C@H](Cc2ccc(O)cc2)NC(=O)[C@H](Cc2c[nH]c3ncccc23)NC(=O)[C@H](c2ccccc2)NC(=O)[C@H](C)N(C)C(=O)[C@H](Cc2c[nH]cn2)NC(=O)[C@H](CCCCN)NC(=O)[C@H](C(C)(C)C)NC(=O)[C@H](Cc2ccc(O)cc2)NC1=O) [R4002]	7.92
Ac-SCY[Tle]KH[NMeA][Phg][Trp(7-aza)]Y[NMePhe(4-F)][Sar]C-NH2 (linker 2-13 via mXylylene; SMILES CC(=O)N[C@@H](CO)C(=O)N[C@H]1CSCc2cccc(c2)CSC[C@@H](C(N)=O)NC(=O)CN(C)C(=O)[C@H](Cc2ccc(F)cc2)N(C)C(=O)[C@H](Cc2ccc(O)cc2)NC(=O)[C@H](Cc2c[nH]c3ncccc23)NC(=O)[C@H](c2ccccc2)NC(=O)[C@H](C)N(C)C(=O)[C@H](Cc2c[nH]cn2)NC(=O)[C@H](CCCCN)NC(=O)[C@H](C(C)(C)C)NC(=O)[C@H](Cc2ccc(O)cc2)NC1=O) [R4104]	3.29
Ac-[Nva]CY[Tle]KH[NMeA][Phg]WY[NMePhe(4-F)][Sar]C-NH2 (linker 2-13 via mXylylene; SMILES CCC[C@H](NC(C)=O)C(=O)N[C@H]1CSCc2cccc(c2)CSC[C@@H](C(N)=O)NC(=O)CN(C)C(=O)[C@H](Cc2ccc(F)cc2)N(C)C(=O)[C@H](Cc2ccc(O)cc2)NC(=O)[C@H](Cc2c[nH]c3ccccc23)NC(=O)[C@H](c2ccccc2)NC(=O)[C@H](C)N(C)C(=O)[C@H](Cc2c[nH]cn2)NC(=O)[C@H](CCCCN)NC(=O)[C@H](C(C)(C)C)NC(=O)[C@H](Cc2ccc(O)cc2)NC1=O) [R4115]	34.1
Ac-[Nva]CY[Tle]KH[NMeA][Phg][Trp(7-aza)]Y[NMePhe(4-F)][Sar]C[dS]KG[TDSPA]VVL (linker 2-13 via mXylylene) [R4110]	16.4
Ac-[Nva]CY[Tle]KH[NMeA][Phg][Trp(7-aza)]Y[NMePhe(4-F)][Sar]C[dS][dA]K[TDSPA]VIM (linker 2-13 via mXylylene) [R4111]	20.8
Glutaryl-[Nva]CY[Tle]KH[NMeA][Phg][Trp(7-aza)]Y[NMePhe(4-F)][Sar]C-NH2 (linker 2-13 via mXylylene; SMILES CCC[C@H](NC(=O)CCCC(=O)O)C(=O)N[C@H]1CSCc2cccc(c2)CSC[C@@H](C(N)=O)NC(=O)CN(C)C(=O)[C@H](Cc2ccc(F)cc2)N(C)C(=O)[C@H](Cc2ccc(O)cc2)NC(=O)[C@H](Cc2c[nH]c3ncccc23)NC(=O)[C@H](c2ccccc2)NC(=O)[C@H](C)N(C)C(=O)[C@H](Cc2c[nH]cn2)NC(=O)[C@H](CCCCN)NC(=O)[C@H](C(C)(C)C)NC(=O)[C@H](Cc2ccc(O)cc2)NC1=O) [R4103]	2
[Nva]CY[Tle]KH[NMeA][Phg][Trp(7-aza)]Y[NMePhe(4-F)][Sar]C[dS]KGCVIM (linker 2-13 via mXylylene) [R4114]	32.7
Ac-[Nva]CY[Tle]KH[NMeA][Phg][Trp(7-aza)]Y[NMePhe(4-F)][NMeA]C-NH2 (linker 2-13 via mXylylene; SMILES CCC[C@H](NC(C)=O)C(=O)N[C@H]1CSCc2cccc(c2)CSC[C@@H](C(N)=O)NC(=O)[C@H](C)N(C)C(=O)[C@H](Cc2ccc(F)cc2)N(C)C(=O)[C@H](Cc2ccc(O)cc2)NC(=O)[C@H](Cc2c[nH]c3ncccc23)NC(=O)[C@H](c2ccccc2)NC(=O)[C@H](C)N(C)C(=O)[C@H](Cc2c[nH]cn2)NC(=O)[C@H](CCCCN)NC(=O)[C@H](C(C)(C)C)NC(=O)[C@H](Cc2ccc(O)cc2)NC1=O) [R4101]	1.45
Ac-[Nva]CY[Tle]KH[NMeA][Phg][Trp(7-aza)]Y[NMePhe(4-F)][Sar]CGCGVGIM (linker 2-13 via mXylylene) [R4119]	64.4
